In paper PMC2715101, “Dimerization of Translationally Controlled Tumor Protein Is Essential For Its Cytokine-Like Activity” (PLoS ONE, 2009):
Numbering of substitutions follows the chain as printed. Numbers in names are those of the source.

What was measured:
[1] = target: Del-N35TCTP (residues 35-172) (rat) (UniProt P63029)
[2] = target: Del-N35TCTP (residues 35-172) (rat) (UniProt P63029); assay: non-reducing SDS-PAGE; purified proteins boiled with or without β-ME, 15% gel, coomassie brilliant blue; dimer by intermolecular disulfide bond
[3] = target: Del-N35TCTP (residues 35-172) (rat) (UniProt P63029); assay: non-reducing SDS-PAGE; proteins completely reduced with 20 mM DTT, transferred to 50 mM Tris pH 7.5, 1 mM EDTA, then oxidized with 0.1, 1 or 10 mM H2O2
[4] = target: Del-N35TCTP (residues 35-172) (rat) (UniProt P63029); assay: cross-linking; sulfhydryl crosslinkers BMOE (five-fold molar excess, 2 h) or BM(PEO)3 (five-fold molar excess, 1 h), room temperature, proteins first reduced with 20 mM DTT; each protein alone and their 1/2:1/2 molar mixture; reducing SDS-PAGE
[5] = target: Del-N35TCTP (residues 35-172) (rat) (UniProt P63029); assay: SEC; Superdex 200 HR 10/30, 50 mM sodium phosphate pH 7.0, 150 mM NaCl, calibrated with molecular size markers
[6] = target: rabbit Fc protein (Fc) (rabbit); assay: native gel or EMSA; Fc fusion proteins on a native gel, apparent molecular weights by a molecular size marker
[7] = target: Fc-fused human recombinant TCTP (Fc-HrTCTP) (human | rabbit) (UniProt P13693); assay: as above
[8] = target: TCTP in bronchoalveolar lavage fluid (BALF) of mice with airway inflammation (mouse (endogenous in BALB/c BALF)) (UniProt P63028); assay: non-reducing SDS-PAGE and Western blotting; BALF from OVA-OVA and N11TCTP-N11TCTP mice
Del-N35TCTP-C172S (rat) [9] = target: Del-N35TCTP-C172S (rat) (UniProt P63029)
Del-N35TCTP-C172S (rat) [10] = target: Del-N35TCTP-C172S (rat) (UniProt P63029); assay: SEC; Superdex 200 HR 10/30, 50 mM sodium phosphate pH 7.0, 150 mM NaCl, calibrated with molecular size markers
[11] = target: the molecule itself; assay: cell-based or functional assay
[12] = target: the molecule itself; assay: non-reducing SDS-PAGE; purified proteins boiled with or without β-ME, 15% gel, coomassie brilliant blue; dimer by intermolecular disulfide bond

Del-N35TCTP (residues 35-172) (from UniProt P63029 35-172) (domain or fragment)
IL-8 secretion from BEAS-2B cells by BM(PEO)3-treated DTT-pretreated Del-N35TCTP, percent of DTT-untreated Del-N35TCTP (% of DTT-untreated Del-N35TCTP) [1]: 122 | IL-8 secretion from BEAS-2B cells by BMOE-treated DTT-pretreated Del-N35TCTP, percent of DTT-untreated Del-N35TCTP (% of DTT-untreated Del-N35TCTP) [1]: 108 | IL-8 secretion from BEAS-2B cells by DTT-treated Del-N35TCTP, percent of DTT-untreated Del-N35TCTP (% of DTT-untreated Del-N35TCTP) [1]: 71.7 | stoichiometry N [2]: 2 | stoichiometry N [3]: 2 | stoichiometry N [4]: 2 | stoichiometry N [5]: 2

rabbit Fc protein (Fc) (domain or fragment)
stoichiometry N [6]: 2

Fc-fused human recombinant TCTP (Fc-HrTCTP) (from UniProt P13693 1-172) (Fc fusion)
stoichiometry N [7]: 2

TCTP in bronchoalveolar lavage fluid (BALF) of mice with airway inflammation (from UniProt P63028 1-172) (natural protein)
stoichiometry N [8]: 2

Del-N35TCTP-C172S (from UniProt P63029 35-172) (domain or fragment)
IL-8 secretion from BEAS-2B cells, 5 µm/ml protein, 24 h, percent of wild-type (Del-N35TCTP) (% of wild-type) (Del-N35TCTP-C172S (rat) [9]): 36 | stoichiometry N (Del-N35TCTP-C172S (rat) [10]): 2

B1: Del-N11TCTP-C172S (domain or fragment, rat, UniProt P63029 11-172, looked up)
chain: DELFSDIYKIREIADGLCLEVEGKMVSRTEGAIDDSLIGGNASAEGPEGEGTESTVVTGVDIVMNHHLQETSFTKEAYKKYIKDYMKSLKGKLEEQKPERVKPFMTGAAEQIKHILANFNNYQFFIGENMNPDGMVALLDYREDGVTPFMIFFKDGLEMEKS
IL-8 secretion from BEAS-2B cells, 5 µm/ml protein, 24 h, percent of wild-type (Del-N11TCTP) [11]: 52 % of wild-type | stoichiometry N [12]: 2

B2: Del-N11TCTP-C28S (domain or fragment, rat, UniProt P63029 11-172, looked up)
chain: B1 chain with C18S, S162C
notes: No stop codon in the reverse primer
stoichiometry N [12]: 2

B3: Del-N11TCTP (residues 11-172) (domain or fragment, rat, UniProt P63029 11-172, looked up)
chain: B1 chain with S162C
notes: No stop codon in the reverse primer; also called Del-N11HRF
stoichiometry N [12]: 2
